Measured values reported in US20220112295A1 (Novo Nordisk, published 2022).

Target: T1, cyno CD30L LZ (cynomolgus monkey, UniProt A0A7N9CVX7 63-234)
T1 construct: extracellular domain; not shown: N-terminal isoleucine zipper motif
T1 sequence: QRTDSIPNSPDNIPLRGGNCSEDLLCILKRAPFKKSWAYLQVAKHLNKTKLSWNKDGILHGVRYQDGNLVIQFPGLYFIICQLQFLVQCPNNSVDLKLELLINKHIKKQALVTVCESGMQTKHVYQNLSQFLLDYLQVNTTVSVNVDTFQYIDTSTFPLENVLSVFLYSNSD
Experiment: blocking of cyno CD30L LZ binding to K299 cells (CD30)
Procedure: Anti-CD30L IgG antibodies were titrated into culture diluent (RPMI-1640 medium+10% heat-inactivated fetal bovine serum) and placed into round-bottomed 96-well microtiter plates (Costar® 96 well plate (Corning; Acton, Mass.) to give a range of final concentrations from luglmi to 10 pg/ml. As a positive control, a mouse anti-human CD30L monoclonal antibody was prepared as described in U.S. Pat. No. 5,480,981. The final volume of diluent and CD30L IgG was 100 μl/well. To each well was then added 50 µl of recombinant human CD30L isoleucine zipper ([…]). The huCD30L LZ construct consists of the extracellular domain of human CD30L (see U.S. Pat. No. 5,480,981) linked at its N-terminus to an isoleucine zipper motif modified by replacing the leucine residues with isoleucine residues. The single cell assay was also used to determine cyno cross-reactivity using a cyno CD30L LZ instead of the huCD30L LZ. CynoCD30L LZ was prepared as described for the human LZ molecule.
The plates were incubated for 45 minutes at room temperature. To each well was added 50 μl of K299 cells (4×10⁵ cells/ml). The plates were then incubated for 24 hours at 37° C. 5% CO₂.
The amount of IL-8 in the cell supernatants was determined by sandwich ELISA, using a CDCL8/IL-8 ELISA DuoSet kit according to the manufacturer's instructions (R&D Systems, Minneapolis, Minn.). IL-8 levels were interpolated from the ELISA standard curve using DeltaSoft 3 version 2.2 software (DeltaSoft, Inc. Hillsborough, N.J.). At results were expressed as the mean It standard error of the mean (SEM) for 3 replicate cultures calculated by GraphPad PRISM software v. 4.01 (GraphPad Software Inc., San Diego, Calif.) as were the IC₅₀ values. The IC₅₀ value derived using the huCD30L LZ for Antibody A1 was 2700 pM. The results using the cynoCD30L LZ can be found in Table 5.

Binder | IC50
Antibody E (antibody, V domains shown, also called mAb E) VH: QVQLQESGPRLVKPSETLSLTCTVSGGSITNNYWSWIRQPAGKGLEWIGRVYSSGLTNYKPSLKSRVTMSVDTSKNQFSLRLNSVTAADTAVYYCARERATVTTRYHYDGMDVWGQGTSVTVSS VL: QSALTQPASVSGSPGQSITISCTGSSSDIGTYNYVSWYQQYPGKAPELMIYEVNNRPSGVSDRFSGSTSGNTASLTISGLQANDEADYYCSSYSSSSTWVFGGGTKLTVL | 1.3 nM
Antibody A (antibody, V domains shown, Human antibody (XenoMouse); also called mAb A; anti-hCD30L A) VH: QVQLQESGPGLVKPSETLSLTCTVSGGSISSYIWSWIRQPAGKGLEWIGRIYASGNTNYNPSLKSRVTMSVDTSKNQFSLKLSSMTAADTAVYYCARDYRVAGTYYYYYGLDVWGQGTTVTVSS VL: QSALTQPASVSGSPGQSITISCTGTSSDVGVYDYVSWYQQHPGKAPKLMIYEVSNRPSGVSNRFSGSKSGNTASLTISGLQTEDEADYYCSSYTSRSTWVFGGGTKLTVL | 1.4 nM
Antibody F (antibody, V domains shown, also called mAb F) VH: QVQLQESGPGLVKPSETLSLTCTVSGGSISSYYWSWIRQPAGKGLEWIGRIFASGSTNYNPSLRSRVTMSRDTSKNQFSLKLSSVTAADTAVYYCAKERVGVQDYYHYSGMDVWGQGTTVTVSS VL: QSALTQPASVSGSPGQSITISCTGTSSDVGLYNYVSWYQQQPGKAPKLMIYEVSKRPSGVSNRFSGSTSGNTASLTISGLQADDEADYSCSSYTSSSTWVFGGGTKLTVL | 0.45 nM
